B1: Lymphocyte antigen 96 (Homo sapiens), Q9Y6Y9 (parent)
chain: MLPFLFFSTLFSSIFTEAQKQYWVCNSSDASISYTYCDKMQYPISINVNPCIELKRSKGLLHIFYIPRRDLKQLYFNLYITVNTMNLPKRKEVICRGSDDDYSFCRALKGETVNTTISFSFKGIKFSKGKYKCVVEAISGSPEEMLFCLEFVILHQPNSN

Variants of B1 are the subject of this assay. Particulars: with tlr4_human TLR4, O00206.
tlr4_human TLR4, O00206, sequence (O00206 whole entry): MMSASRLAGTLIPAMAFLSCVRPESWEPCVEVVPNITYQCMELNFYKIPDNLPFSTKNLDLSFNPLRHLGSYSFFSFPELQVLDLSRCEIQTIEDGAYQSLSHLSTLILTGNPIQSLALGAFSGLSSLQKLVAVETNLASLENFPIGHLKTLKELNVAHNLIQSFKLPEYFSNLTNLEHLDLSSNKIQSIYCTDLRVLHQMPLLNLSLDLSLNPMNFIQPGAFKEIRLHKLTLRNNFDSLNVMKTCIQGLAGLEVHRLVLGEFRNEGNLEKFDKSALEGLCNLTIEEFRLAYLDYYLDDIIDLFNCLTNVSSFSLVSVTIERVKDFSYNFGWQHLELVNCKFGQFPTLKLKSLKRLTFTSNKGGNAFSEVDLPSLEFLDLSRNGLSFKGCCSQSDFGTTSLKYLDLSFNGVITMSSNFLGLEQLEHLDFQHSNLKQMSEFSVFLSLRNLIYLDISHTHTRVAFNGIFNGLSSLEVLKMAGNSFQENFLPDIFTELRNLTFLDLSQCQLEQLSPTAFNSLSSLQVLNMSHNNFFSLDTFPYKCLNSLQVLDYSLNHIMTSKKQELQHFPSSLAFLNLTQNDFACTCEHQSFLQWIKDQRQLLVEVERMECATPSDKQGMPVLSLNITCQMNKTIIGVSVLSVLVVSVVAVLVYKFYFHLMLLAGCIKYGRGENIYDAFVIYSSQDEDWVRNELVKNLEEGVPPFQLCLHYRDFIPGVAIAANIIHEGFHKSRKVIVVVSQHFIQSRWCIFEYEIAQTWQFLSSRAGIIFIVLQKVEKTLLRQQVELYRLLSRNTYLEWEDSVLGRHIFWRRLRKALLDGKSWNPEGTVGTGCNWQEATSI
Take F126A: the “effect of a mutation on the interaction” value was “disrupting interaction”.

As to H155A, the “effect of a mutation on the interaction” value was “disrupting interaction”.

(Values after IntAct's records for PubMed 17803912.)
